The values below come from patent US5693759.

Data set [1] concerns the target T1, TRC-1 (p21SNF1/JunB heteromultimer) (Homo sapiens) (UniProt Q9NR55+P17275).
T1 sequence 1: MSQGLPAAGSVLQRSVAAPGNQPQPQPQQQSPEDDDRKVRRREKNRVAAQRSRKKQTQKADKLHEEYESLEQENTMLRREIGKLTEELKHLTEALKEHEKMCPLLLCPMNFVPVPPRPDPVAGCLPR
T1 sequence 2: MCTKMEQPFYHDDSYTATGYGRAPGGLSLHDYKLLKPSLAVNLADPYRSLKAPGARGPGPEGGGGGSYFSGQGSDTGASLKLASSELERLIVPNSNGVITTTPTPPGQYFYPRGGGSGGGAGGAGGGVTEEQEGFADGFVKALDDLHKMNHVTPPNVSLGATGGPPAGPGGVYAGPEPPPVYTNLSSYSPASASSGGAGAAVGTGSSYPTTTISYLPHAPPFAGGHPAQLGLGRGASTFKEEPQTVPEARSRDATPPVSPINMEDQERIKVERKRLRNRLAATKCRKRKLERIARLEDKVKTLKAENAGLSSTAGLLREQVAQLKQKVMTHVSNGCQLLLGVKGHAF
The data set can be described thus: competition. As to conditions: vs 12.5-fold for s2.

Data set [2] concerns the target T1, TRC-1 (p21SNF1/JunB heteromultimer) (Homo sapiens). The data set can be described thus: EMSA. As to conditions: self-competition; abolished at 100-fold. (In general: Mobility shift assays separate free from complexed probe on a gel.)
The target of data set [3] is Tax-response complex-1 (TRC-1), purified from SLB-I nuclear extract (human) (UniProt P17275).

Substance HTLV-1 LTR 21-bp repeat site1 (s1) yielded a binding signal (fold excess for ~55% competition) in data set [1] of 100.

In turn, HTLV-1 LTR 21-bp repeat site2 (s2) yielded a binding signal (% competition at 12.5-fold excess) in data set [2] of 55.

In the case of HTLV-1 LTR 21-bp repeat site3 (s3), in data set [1], the binding signal (fold excess for ~55% competition) is 50.

“HTLV-1 Tax protein, expressed in bacteria as a His6 fusion at its carboxy terminus (from UniProt P03409)” showed a binding of purified TRC-1 to site2 probe in EMSA, phosphorimage analysis in data set [3] of 2.5 to 6.5 fold.
